The source of these data is the supplement of paper PMC9170038.

The test system of this data set is K4 kissing-loop RNA reporter. In words: apparent KD of K4 kissing-loop reporter; higher = weaker reporter binding. The settings on record: Eterna round: R107. As to the method:
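RNA-MaP round R107: designed RNA switches with theophylline, tryptophan, arginine or FMN aptamers are transcribed on-chip within common flanks. They are titrated with a labelled K4 kissing-loop RNA reporter in RNA-MaP buffer (100 mM Tris pH 7.5, 80 mM KCl, 4 mM MgCl2), without ligand or with the indicated ligand. Median apparent KD per design.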

[1] abbreviates: input ligand: theophylline 20 uM.
[2] abbreviates: input ligand: tryptophan 2.4 mM.
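Also: bound reporter read as fluorescence of individual clusters on recovered sequencing chips by microscopy, with normalized cluster intensities fitted with a binding model.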

Take “UUAUAUAUAUCAGAUACCAGUAUAAUGGAAACAAAUUAUGUUAUGAGUGAUGUUCAUGUAUGCCCUUGGCAGCUGGUAUGGGUUU [KL-XTheo-B20]”: the “apparent KD of K4 kissing-loop reporter” value amounted to 356 nM (input ligand: FMN 200 uM); 322 nM (input ligand: arginine 13.2 mM); 362 nM (input ligand: none); 439 nM under setting [1]; 311 nM under setting [2].

As to “AAGUCAUAGGCAGGAUAUGCAUAGUAAUAAGGCCAUAUAUACGUAUAGAGUGAUGUUUUGUACCAGGCAGAAGGGCUACAUCAGU [FMN B Excl V7 (+3A)]”, the “apparent KD of K4 kissing-loop reporter” value (input ligand: FMN 200 uM) stood at 550 nM; the “apparent KD of K4 kissing-loop reporter” value (input ligand: arginine 13.2 mM) was found to be 506 nM; the “apparent KD of K4 kissing-loop reporter” value (input ligand: none) is 594 nM; the “apparent KD of K4 kissing-loop reporter” value under setting [1] was determined as 643 nM; the “apparent KD of K4 kissing-loop reporter” value under setting [2] was 470 nM.

With “CCGUGGAGUGAUGUUCCACGUACUACGGAUACCAGCUUUGCCAAAGGCCCUUGGCAGCCGCACGUUGCAGUGAUGUUGUGGCGCG [Same State Theophylline A G9]”, the “apparent KD of K4 kissing-loop reporter” value was determined as 345 nM (input ligand: FMN 200 uM); 241 nM (input ligand: arginine 13.2 mM); 327 nM (input ligand: none); 328 nM under setting [1]; 299 nM under setting [2].

For the sequence “UGUCAUUGGUCGGCCGCCACUAGGACCGGGUAUAACCUAGUGAUGUUAGUAAGUACGGCCGCCACUAGGACCGGGACCGAUGACU [KL-SSTryp-B19 #DoubleAptamer]”, the “apparent KD of K4 kissing-loop reporter” value runs as follows: (input ligand: FMN 200 uM) 484 nM; (input ligand: arginine 13.2 mM) 369 nM; (input ligand: none) 583 nM; under setting [1], 462 nM; under setting [2], 87.5 nM.

For the sequence “AUUUUGUUGUCAGGAUAUUAGUAUGGUUUUGGUUUGUUAGUGAUGUUGAUGUUUUGUUUAUGUAUUUAAGAAGGGAUUUAGCGGU [aqaawgumullin]”, the “apparent KD of K4 kissing-loop reporter” value (input ligand: FMN 200 uM) is 474 nM; the “apparent KD of K4 kissing-loop reporter” value (input ligand: arginine 13.2 mM) came to 352 nM; the “apparent KD of K4 kissing-loop reporter” value (input ligand: none) was 400 nM; the “apparent KD of K4 kissing-loop reporter” value under setting [1] is 401 nM; the “apparent KD of K4 kissing-loop reporter” value under setting [2] was 343 nM.

Consider “GAGGCCAGACUGAGUGAUGUUUAGUAUGAUACCAGUAUCGAAGGAUACCCUUGGCAGCAUGCCACGGCCUCGGCGGGAAACCGCC”, for which the “apparent KD of K4 kissing-loop reporter” value is, setting by setting: (input ligand: FMN 200 uM) 746 nM; (input ligand: arginine 13.2 mM) 663 nM; (input ligand: none) 1000 nM; under setting [1], 714 nM; under setting [2], 876 nM.

In the case of “UGUACCGAGUCAGGAUAUCAUAAUAAAUCCAGUGAUGUUGGAAUAACCAGUACAAAGUACUGGCCUUGAGAAGGGACUUGGUACU [FmnBS 3 #SwitchBubble #StaticStem]”, the “apparent KD of K4 kissing-loop reporter” value by setting is: (input ligand: FMN 200 uM) 167 nM; (input ligand: arginine 13.2 mM) 146 nM; (input ligand: none) 163 nM; under setting [1], 147 nM; under setting [2], 147 nM.

As for “GGAUGCAUAGUAGAUACCAGCAAGCUCGGAUAGUGAUGUUGUUCGCAGUCAUUUCGGUAGUGCCCUUGGCAGCUAGACGCCCGAU [theeternabot_exclusion_KL_Theo_B_36]”, the “apparent KD of K4 kissing-loop reporter” value reads like this: (input ligand: FMN 200 uM) 109 nM; (input ligand: arginine 13.2 mM) 92.7 nM; (input ligand: none) 104 nM; under setting [1], 92.3 nM; under setting [2], 97.5 nM.

For the sequence “UAACUCUUGCAGUGAUGUUGCAAGUAAGCUCAGGAUAUCAGGAAACUGAGAAGGGAGCAUCCUGAGCAACUGCAAGAGCUCAGAA [[K1]-[K2]-[F1]-[F2]-[F]'-[K]'-[F]''_Design1]”, the “apparent KD of K4 kissing-loop reporter” value (input ligand: FMN 200 uM) amounted to 224 nM; the “apparent KD of K4 kissing-loop reporter” value (input ligand: arginine 13.2 mM) came to 101 nM; the “apparent KD of K4 kissing-loop reporter” value (input ligand: none) came out at 95.9 nM; the “apparent KD of K4 kissing-loop reporter” value under setting [1] turned out to be 160 nM; the “apparent KD of K4 kissing-loop reporter” value under setting [2] was 87.5 nM.

Take “UCGAUAGAGAGUGAUGUUCUCGUAUCAGAUACCAGUCACGCGAGUGACCCUUGGCAGCUGAUGUACAGCUGAGAGUAGUAUUCGA [Theo A Ex t8]”: the “apparent KD of K4 kissing-loop reporter” value reads like this: (input ligand: FMN 200 uM) 90.1 nM; (input ligand: arginine 13.2 mM) 104 nM; (input ligand: none) 90.5 nM; under setting [1], 129 nM; under setting [2], 89.6 nM.

Take “AAACUCAGUGAUGUUGAGUGGGAGCGGGAUACCAGAUCGCCCAUCAUCCCUUGGCAGCCCGAGCGUCAGAAUACAUUUCAUUUGC [theeternabot_sameState_KL_Theo_A_6]”: the “apparent KD of K4 kissing-loop reporter” value runs as follows: (input ligand: FMN 200 uM) 339 nM; (input ligand: arginine 13.2 mM) 349 nM; (input ligand: none) 349 nM; under setting [1], 385 nM; under setting [2], 263 nM.

“GAUUGUGAUGGAAACAUCGCAAUCUCUGAAGGAGCGCGUGAAAACGCAGGUAGGUCGCAGGACGACAAAGACAGUGAUGUUGUCA [Ex Arginine A K4 1]”: the “apparent KD of K4 kissing-loop reporter” value was 335 nM (input ligand: FMN 200 uM); 319 nM (input ligand: arginine 13.2 mM); 311 nM (input ligand: none); 369 nM under setting [1]; 380 nM under setting [2].

Take “UUUGUAGUGGGAGGAUAUCCUAAUAUGGGUGAUGUUAGCGAUGUUGAAGGUGUAGUGAUGUUAUGCGGAGAAGGCCCACUGUAGA [BDazzled - #20 - Exc. FMN B]”: the “apparent KD of K4 kissing-loop reporter” value is, setting by setting: (input ligand: FMN 200 uM) 543 nM; (input ligand: arginine 13.2 mM) 221 nM; (input ligand: none) 189 nM; under setting [1], 614 nM; under setting [2], 253 nM.

Turning to “GUCGGCCGCGCGCAAGCGCGGCCGGCCGAUACCAGCGCGCCGGCGCGCCCUUGGCAGCGGCGCCGAGUGAUGUUCGGCCUGACGU [#2 Same State - Theophylline A Attempt #7 (HarryS)]”, the “apparent KD of K4 kissing-loop reporter” value by setting is: (input ligand: FMN 200 uM) 710 nM; (input ligand: arginine 13.2 mM) 538 nM; (input ligand: none) 704 nM; under setting [1], 601 nM; under setting [2], 917 nM.

Consider “CAACGAGUGAUGGUCGUUGACGGCCAUCCCGAGGAUAUGGGAUUUUCCAGAAGGCGGGAUCGCCCGGAGUGAUGUUCCGUGAUUU [Same State FMN A GF 15]”, for which the “apparent KD of K4 kissing-loop reporter” value is 73.3 nM (input ligand: FMN 200 uM); 228 nM (input ligand: arginine 13.2 mM); 150 nM (input ligand: none); 221 nM under setting [1]; 116 nM under setting [2].

“CCGGCCCAGCCGGAUACCAGUGCGCCGCAGGGAACGGCGGGCCCAGAGUGAUGUUCGGGACACCCUUGGCAGCCGCCUGGGUCCC [#2 Same State - Theophylline B Attempt #30 (HarryS)]”: the “apparent KD of K4 kissing-loop reporter” value is 618 nM (input ligand: FMN 200 uM); 364 nM (input ligand: arginine 13.2 mM); 669 nM (input ligand: none); 355 nM under setting [1]; 435 nM under setting [2].
